Measured values from patent US12116387B2, “Antimicrobial peptides” (priority 2021, dated 2024).
Where two headings read alike, the source gives them in different places.

Experiments:
[1] = system: human embryonic kidney (HEK293) cells; assay: Cytotoxicity against HEK293 cells; type: cell-based; conditions: HEK293
Text: The FLPII motif was chosen for the permutations to preserve the natural antimicrobial activity of mast-L and also conserve the hydrophobic content inserted in the N-terminal extremity for the initial design of mast-MO. Next, we assessed the antimicrobial (FIG. 10) and cytotoxic activities of the mast-MO analog library against HEK293 cells (FIG. 6C). These specific cell line was chosen as it derives from human embryonic kidney cells and potential antimicrobial (i.e., AMPs, antibiotics) toxicity affects the kidneys, which are responsible for clearing such molecules (34). Also measured was whether the peptides aggregated at the highest concentration tested (128 μmoL^−1) (Table 7) since the motif inserted is composed of residues with aliphatic or aromatic side chain groups that may be prone to aggregation when in proximity within the primary peptide sequence, thus altering biological activity. Minor changes to the first five residues inserted in the mast-MO primary sequence led to a pronounced decrease in cytotoxic activity (2.5 to 5-fold) compared to mast-MO (FIG. 6C).

mice = system: mice
Protocol: Therefore, the anti-infective activity of mast-MO was then tested in pre-clinical mouse models. First, the toxicity of a single dose of either mast-L or mast-MO administered peritoneally to mice was assessed in order to determine the range of concentrations to be used in subsequent animal experiments. The hemolytic activity of mast-MO (up to 200 μmoL^−1) against murine red blood cells (Table 6) was also tested prior to conducting animal experiments.
Systemic bacterial infection mouse model. Acute toxicity assay was performed based on the work of Navon-Venezia and co-workers (46). The experiment was performed by intraperitoneal (i.p.) injection of the tested peptides to groups of 10 C57BL/6 mice. Each mouse was injected with a 0.5 mL solution of freshly prepared of peptides in PBS. The doses of peptide administered per mouse were 0, 10, 30, 50, 70 and 90 mg Kg^−1 of body weight. Animals were directly inspected for adverse effects for 6 h, and mortality was monitored for 7 days thereafter. Differences between groups were analysed using the Fisher exact test (differences were considered to be statistically significant when the P value was <0.05). Briefly, E. coli ATCC8739 and E. coli 1812446 or S. aureus ATCC 29213 and S. aureus (MRSA) ATCC33591 were plated on tryptic soy agar plus 5% sheep blood (blood agar, Himedia, India) from a frozen stock. Following 24 h of incubation of the agar plate, three isolated colonies were transferred to 1 mL of BHI. The broth culture was incubated overnight (12-16 h) at 37° C. with shaking. […] Mice were challenged with either strain of E. coli ATCC8739 and E. coli 1812446 or S. aureus ATC29213 and S. aureus (MRSA) ATCC33591 in a final volume of 200 μL of PBS by intraperitoneal injection (i.p.). The day of challenge was designated as day 1 of the experiment. Three hours after bacterial injection, mice (n=5) were treated, intraperitoneally, with different concentrations of peptides (1, 5 or 10 mg Kg^−1), LL-37, gentamicin and 10 mg Kg^−1 of imipenem or PBS for 8 days. For bacterial load evaluation, 5 mice per group were used. Animals were humanely killed 24 h after bacterial administration. To detect bacterial colonization, the peritoneal lavage samples were collected under sterile conditions. The peritoneal lavage was obtained by washing the cavity with 5 mL of sterile PBS. Samples were diluted serially, and 100 μL of each dilution was spread in duplicate on appropriate agar plates for the count of developed colonies. Cytokine levels (i.e., IFN-γ, IL-6, IL−10, IL−12p70 and TNF-α) in the peritoneal lavage of the mice both in the absence and presence of peptide treatment were quantified by ELISA (Peprotech, USA) according to the manufacturer's instructions.

NLKALAALAKKIL [Mast-L]
Cytotoxic activity, Peptide Concentration [1]: 50 µmol/L | Gross toxicity, number of mice (TL) (mice; Dose 5 mg Kg^−1, five mice per group): 2 (TL-1) | Gross toxicity, number of mice (TL) (mice; Dose 10 mg Kg^−1, five mice per group): 5 | Dose above which highly toxic in preliminary mouse experiments (mice; single dose, peritoneally): higher than 10 mg Kg^−1
